Target: Nucleosome: Xenopus laevis histone octamer with Cy3-labeled H2A T120C on Widom 601 DNA (Xenopus laevis)
Test: single-molecule fluorescence co-localisation with photobleaching step counting

## Alexa647-labeled Chd1p (from UniProt P32657 1-1468) (enzyme)
  fraction of nucleosomes with one Chd1p: 47.8%
  fraction of nucleosomes with three Chd1ps: 21.7%
  fraction of nucleosomes with two Chd1ps: 30.4%

— doi:10.1101/376806
